Publication PMC10397247

Experiments:
P6mSN = target: T1, P6mSN; assay: two-hybrid library CCNG1;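 also: natural log of median RNA to DNA barcode read ratio; higher means stronger binding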
T1 chain: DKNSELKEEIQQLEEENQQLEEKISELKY

P11mSN = target: T2, P11mSN; assay: two-hybrid library CCNG1;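 also: natural log of median RNA to DNA barcode read ratio; higher means stronger binding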
T2 chain: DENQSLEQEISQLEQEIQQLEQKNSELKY

P9mSN = target: T3, P9mSN; assay: two-hybrid library CCNG1;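 also: natural log of median RNA to DNA barcode read ratio; higher means stronger binding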
T3 chain: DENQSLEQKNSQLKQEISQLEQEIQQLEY

P7mSN = target: T4, P7mSN; assay: two-hybrid library CCNG1;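 also: natural log of median RNA to DNA barcode read ratio; higher means stronger binding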
T4 chain: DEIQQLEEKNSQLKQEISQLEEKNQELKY

P5mSN = target: T5, P5mSN; assay: two-hybrid library CCNG1;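 also: natural log of median RNA to DNA barcode read ratio; higher means stronger binding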
T5 chain: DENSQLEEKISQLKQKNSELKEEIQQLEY

P10mSN = target: T6, P10mSN; assay: two-hybrid library CCNG1;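 also: natural log of median RNA to DNA barcode read ratio; higher means stronger binding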
T6 chain: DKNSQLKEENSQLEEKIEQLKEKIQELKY

P2mSN = target: T7, P2mSN; assay: two-hybrid library CCNG1
T7 chain: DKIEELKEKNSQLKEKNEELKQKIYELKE

P4mSN = target: T8, P4mSN; assay: two-hybrid library CCNG1
T8 chain: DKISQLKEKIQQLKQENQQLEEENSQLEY

P1mSN = target: T9, P1mSN; assay: two-hybrid library CCNG1
T9 chain: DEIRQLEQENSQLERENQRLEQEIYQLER

P12mSN = target: T10, P12mSN; assay: two-hybrid library CCNG1
T10 chain: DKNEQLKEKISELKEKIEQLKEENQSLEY

P8mSN = target: T11, P8mSN; assay: two-hybrid library CCNG1
T11 chain: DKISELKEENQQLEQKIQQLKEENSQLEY

P3mSN = target: T12, P3mSN; assay: two-hybrid library CCNG1
T12 chain: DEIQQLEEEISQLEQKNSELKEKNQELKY

4H949-bA = target: T13, 4H949-bA; assay: two-hybrid library CCNG1
T13 chain: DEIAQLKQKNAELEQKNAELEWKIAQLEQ

4H3381-bA = target: T14, 4H3381-bA; assay: two-hybrid library CCNG1
T14 chain: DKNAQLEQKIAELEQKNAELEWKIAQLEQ

4H3041-bA = target: T15, 4H3041-bA; assay: two-hybrid library CCNG1
T15 chain: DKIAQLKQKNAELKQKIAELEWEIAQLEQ

4H932-bA = target: T16, 4H932-bA; assay: two-hybrid library CCNG1
T16 chain: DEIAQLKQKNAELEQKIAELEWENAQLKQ

4H2518-bA = target: T17, 4H2518-bA; assay: two-hybrid library CCNG1
T17 chain: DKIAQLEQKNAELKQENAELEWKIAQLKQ

4H3628-bA = target: T18, 4H3628-bA; assay: two-hybrid library CCNG1
T18 chain: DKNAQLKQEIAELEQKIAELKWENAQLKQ

4H730-bA = target: T19, 4H730-bA; assay: two-hybrid library CCNG1
T19 chain: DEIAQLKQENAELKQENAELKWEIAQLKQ

4H2162-bA = target: T20, 4H2162-bA; assay: two-hybrid library CCNG1
T20 chain: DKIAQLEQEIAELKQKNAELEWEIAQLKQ

4H264-bA = target: T21, 4H264-bA; assay: two-hybrid library CCNG1
T21 chain: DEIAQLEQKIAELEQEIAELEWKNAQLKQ

4H2233-bA = target: T22, 4H2233-bA; assay: two-hybrid library CCNG1
T22 chain: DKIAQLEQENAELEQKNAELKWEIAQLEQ

4H2760-bA = target: T23, 4H2760-bA; assay: two-hybrid library CCNG1
T23 chain: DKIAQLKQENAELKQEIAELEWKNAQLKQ

4H166-bA = target: T24, 4H166-bA; assay: two-hybrid library CCNG1
T24 chain: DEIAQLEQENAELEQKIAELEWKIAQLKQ

4H235-bA = target: T25, 4H235-bA; assay: two-hybrid library CCNG1
T25 chain: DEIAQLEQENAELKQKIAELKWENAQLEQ

4H56-bA = target: T26, 4H56-bA; assay: two-hybrid library CCNG1
T26 chain: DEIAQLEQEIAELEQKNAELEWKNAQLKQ

4H3297-bA = target: T27, 4H3297-bA; assay: two-hybrid library CCNG1
T27 chain: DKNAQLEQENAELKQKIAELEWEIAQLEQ

4H349-bA = target: T28, 4H349-bA; assay: two-hybrid library CCNG1
T28 chain: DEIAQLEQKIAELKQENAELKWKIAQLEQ

4H4073-bN = target: T29, 4H4073-bN; assay: two-hybrid library CCNG1
T29 chain: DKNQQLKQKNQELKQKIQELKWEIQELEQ

4H796-bA = target: T30, 4H796-bA; assay: two-hybrid library CCNG1
T30 chain: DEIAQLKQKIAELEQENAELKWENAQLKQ

4H2444-bA = target: T31, 4H2444-bA; assay: two-hybrid library CCNG1
T31 chain: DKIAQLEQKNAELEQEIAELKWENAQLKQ

4H2859-bA = target: T32, 4H2859-bA; assay: two-hybrid library CCNG1
T32 chain: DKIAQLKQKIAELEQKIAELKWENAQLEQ

4H2585-bA = target: T33, 4H2585-bA; assay: two-hybrid library CCNG1
T33 chain: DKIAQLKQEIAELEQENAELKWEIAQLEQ

4H2931-bA = target: T34, 4H2931-bA; assay: two-hybrid library CCNG1
T34 chain: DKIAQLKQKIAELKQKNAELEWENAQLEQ

4H2253-bA = target: T35, 4H2253-bA; assay: two-hybrid library CCNG1
T35 chain: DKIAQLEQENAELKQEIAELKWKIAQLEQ

4H3364-bA = target: T36, 4H3364-bA; assay: two-hybrid library CCNG1
T36 chain: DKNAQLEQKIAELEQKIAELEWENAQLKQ

4H2143-bA = target: T37, 4H2143-bA; assay: two-hybrid library CCNG1
T37 chain: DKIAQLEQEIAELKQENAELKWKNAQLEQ

P5A = target: T38, P5A; assay: two-hybrid library CCNG1
T38 chain: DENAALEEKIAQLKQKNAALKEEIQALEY

P7A = target: T39, P7A; assay: two-hybrid library CCNG1
T39 chain: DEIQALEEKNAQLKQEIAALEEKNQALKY

P12A = target: T40, P12A; assay: two-hybrid library CCNG1
T40 chain: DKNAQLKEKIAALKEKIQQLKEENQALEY

P1A = target: T41, P1A; assay: two-hybrid library CCNG1
T41 chain: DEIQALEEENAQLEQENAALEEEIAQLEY

P3A = target: T42, P3A; assay: two-hybrid library CCNG1
T42 chain: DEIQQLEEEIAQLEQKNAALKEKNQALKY

P6A = target: T43, P6A; assay: two-hybrid library CCNG1
T43 chain: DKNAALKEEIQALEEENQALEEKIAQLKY

P10A = target: T44, P10A; assay: two-hybrid library CCNG1
T44 chain: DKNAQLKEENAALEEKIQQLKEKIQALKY

P4A = target: T45, P4A; assay: two-hybrid library CCNG1
T45 chain: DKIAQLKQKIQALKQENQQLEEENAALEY

P9A = target: T46, P9A; assay: two-hybrid library CCNG1
T46 chain: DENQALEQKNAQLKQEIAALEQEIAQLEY

P11A = target: T47, P11A; assay: two-hybrid library CCNG1
T47 chain: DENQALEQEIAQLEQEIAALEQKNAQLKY

P8A = target: T48, P8A; assay: two-hybrid library CCNG1
T48 chain: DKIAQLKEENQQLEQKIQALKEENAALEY

P2A = target: T49, P2A; assay: two-hybrid library CCNG1
T49 chain: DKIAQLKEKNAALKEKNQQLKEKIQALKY

Core_NNIN-es_KKKE = target: T50, Core_NNIN-es_KKKE; assay: two-hybrid library CCmax; settings: mean of both orientations
T50 chain: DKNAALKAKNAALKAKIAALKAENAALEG

Core_NNII-es_KKKE = target: T51, Core_NNII-es_KKKE; assay: two-hybrid library CCmax; settings: mean of both orientations
T51 chain: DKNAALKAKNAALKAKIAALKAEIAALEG

Core_NNIN-es_KKEK = target: T52, Core_NNIN-es_KKEK; assay: two-hybrid library CCmax; settings: mean of both orientations
T52 chain: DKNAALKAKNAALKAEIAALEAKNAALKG

Core_NIIN-es_KKEK = target: T53, Core_NIIN-es_KKEK; assay: two-hybrid library CCmax; settings: mean of both orientations
T53 chain: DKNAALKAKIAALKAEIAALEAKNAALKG

Core_NNNI-es_KKKK = target: T54, Core_NNNI-es_KKKK; assay: two-hybrid library CCmax; settings: mean of both orientations
T54 chain: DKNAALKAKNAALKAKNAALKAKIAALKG

Core_NNIN-es_KKKK = target: T55, Core_NNIN-es_KKKK; assay: two-hybrid library CCmax; settings: mean of both orientations
T55 chain: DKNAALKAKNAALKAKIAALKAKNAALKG

Core_NIII-es_KEKK = target: T56, Core_NIII-es_KEKK; assay: two-hybrid library CCmax; settings: mean of both orientations
T56 chain: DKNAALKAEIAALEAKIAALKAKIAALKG

## DKNSQLKEENSQLEEKIEQLKEKIQELKY [P10mSN]
P6mSN
  interaction score: -0.212
P11mSN
  interaction score: -0.495
P9mSN
  interaction score: 0.647
P7mSN
  interaction score: 0.521
P5mSN
  interaction score: -0.891
P10mSN
  interaction score: 0.0645
P2mSN
  interaction score: -1.62
P4mSN
  interaction score: -0.959
P1mSN
  interaction score: 0.0169
P12mSN
  interaction score: -0.911
P8mSN
  interaction score: -0.586
P3mSN
  interaction score: -0.696

## DEIAQLEQENAELEQKIAELEWKIAQLKQ [4H166-bA]
4H949-bA
  interaction score: 0.655
4H3381-bA
  interaction score: 0.0741
4H3041-bA
  interaction score: 1.54
4H932-bA
  interaction score: -0.303
4H2518-bA
  interaction score: 2.14
4H3628-bA
  interaction score: -0.111
4H730-bA
  interaction score: -0.818
4H2162-bA
  interaction score: 0.273
4H264-bA
  interaction score: 1.18
4H2233-bA
  interaction score: 0.472
4H2760-bA
  interaction score: 1.38
4H166-bA
  interaction score: 1.79
4H235-bA
  interaction score: 0.308
4H56-bA
  interaction score: -0.289
4H3297-bA
  interaction score: 1.92
4H349-bA
  interaction score: -0.678
4H4073-bN
  interaction score: 1.76
4H796-bA
  interaction score: -0.288
4H2444-bA
  interaction score: 0.00294
4H2859-bA
  interaction score: 1.07
4H2585-bA
  interaction score: -0.344
4H2931-bA
  interaction score: 1.56
4H2253-bA
  interaction score: 0.212
4H3364-bA
  interaction score: -0.668
4H2143-bA
  interaction score: -0.442

## DKNAQLKEENAALEEKIQQLKEKIQALKY [P10A]
P5A
  interaction score: -0.424
P7A
  interaction score: 1.36
P12A
  interaction score: -0.26
P1A
  interaction score: 0.349
P3A
  interaction score: 0.616
P6A
  interaction score: 0.00329
P10A
  interaction score: -0.322
P4A
  interaction score: -0.619
P9A
  interaction score: 2.37
P11A
  interaction score: 0.405
P8A
  interaction score: -0.507
P2A
  interaction score: -0.904

## DENAALEAENAALEAEIAALEAKNAALKG [Core_NNIN-es_EEEK]
Core_NNIN-es_KKKE
  interaction score: 2.07

## DENAALEAENAALEAEIAALEAKIAALKG [Core_NNII-es_EEEK]
Core_NNII-es_KKKE
  interaction score: 2.42

## DENAALEAENAALEAKIAALKAENAALEG [Core_NNIN-es_EEKE]
Core_NNIN-es_KKEK
  interaction score: 2.2

## DENAALEAEIAALEAKIAALKAENAALEG [Core_NIIN-es_EEKE]
Core_NIIN-es_KKEK
  interaction score: 1.96

## DENAALEAENAALEAENAALEAEIAALEG [Core_NNNI-es_EEEE]
Core_NNNI-es_KKKK
  interaction score: 2.16

## DENAALEAENAALEAEIAALEAENAALEG [Core_NNIN-es_EEEE]
Core_NNIN-es_KKKK
  interaction score: 1.83

## DENAALEAKIAALKAEIAALEAEIAALEG [Core_NIII-es_EKEE]
Core_NIII-es_KEKK
  interaction score: 1.92
